Experiments:
fibronectin [1] = target: T1, fibronectin (UniProt P02751 32-2477); assay: ELISA; wells coated with 10 μg/ml purified fibronectin in 0.05 M Na2CO3 pH 9.0; 0.03125-2 μM GST or GST-tagged OspC variants, 1 hr at ambient temperature; goat anti-GST and HRP-conjugated anti-goat IgG; estimated KD from a fit of OD405; details: both partners purified
fibronectin [2] = target: T1, fibronectin; assay: SPR; Biacore 3000; fibronectin on a CM5 chip; 0-500 nM untagged OspC variants injected at 10 μl/min, 25°C; 1:1 Langmuir model; KD from the average koff divided by kon of each run; details: both partners purified

T1 sequence (P02751 32-2477): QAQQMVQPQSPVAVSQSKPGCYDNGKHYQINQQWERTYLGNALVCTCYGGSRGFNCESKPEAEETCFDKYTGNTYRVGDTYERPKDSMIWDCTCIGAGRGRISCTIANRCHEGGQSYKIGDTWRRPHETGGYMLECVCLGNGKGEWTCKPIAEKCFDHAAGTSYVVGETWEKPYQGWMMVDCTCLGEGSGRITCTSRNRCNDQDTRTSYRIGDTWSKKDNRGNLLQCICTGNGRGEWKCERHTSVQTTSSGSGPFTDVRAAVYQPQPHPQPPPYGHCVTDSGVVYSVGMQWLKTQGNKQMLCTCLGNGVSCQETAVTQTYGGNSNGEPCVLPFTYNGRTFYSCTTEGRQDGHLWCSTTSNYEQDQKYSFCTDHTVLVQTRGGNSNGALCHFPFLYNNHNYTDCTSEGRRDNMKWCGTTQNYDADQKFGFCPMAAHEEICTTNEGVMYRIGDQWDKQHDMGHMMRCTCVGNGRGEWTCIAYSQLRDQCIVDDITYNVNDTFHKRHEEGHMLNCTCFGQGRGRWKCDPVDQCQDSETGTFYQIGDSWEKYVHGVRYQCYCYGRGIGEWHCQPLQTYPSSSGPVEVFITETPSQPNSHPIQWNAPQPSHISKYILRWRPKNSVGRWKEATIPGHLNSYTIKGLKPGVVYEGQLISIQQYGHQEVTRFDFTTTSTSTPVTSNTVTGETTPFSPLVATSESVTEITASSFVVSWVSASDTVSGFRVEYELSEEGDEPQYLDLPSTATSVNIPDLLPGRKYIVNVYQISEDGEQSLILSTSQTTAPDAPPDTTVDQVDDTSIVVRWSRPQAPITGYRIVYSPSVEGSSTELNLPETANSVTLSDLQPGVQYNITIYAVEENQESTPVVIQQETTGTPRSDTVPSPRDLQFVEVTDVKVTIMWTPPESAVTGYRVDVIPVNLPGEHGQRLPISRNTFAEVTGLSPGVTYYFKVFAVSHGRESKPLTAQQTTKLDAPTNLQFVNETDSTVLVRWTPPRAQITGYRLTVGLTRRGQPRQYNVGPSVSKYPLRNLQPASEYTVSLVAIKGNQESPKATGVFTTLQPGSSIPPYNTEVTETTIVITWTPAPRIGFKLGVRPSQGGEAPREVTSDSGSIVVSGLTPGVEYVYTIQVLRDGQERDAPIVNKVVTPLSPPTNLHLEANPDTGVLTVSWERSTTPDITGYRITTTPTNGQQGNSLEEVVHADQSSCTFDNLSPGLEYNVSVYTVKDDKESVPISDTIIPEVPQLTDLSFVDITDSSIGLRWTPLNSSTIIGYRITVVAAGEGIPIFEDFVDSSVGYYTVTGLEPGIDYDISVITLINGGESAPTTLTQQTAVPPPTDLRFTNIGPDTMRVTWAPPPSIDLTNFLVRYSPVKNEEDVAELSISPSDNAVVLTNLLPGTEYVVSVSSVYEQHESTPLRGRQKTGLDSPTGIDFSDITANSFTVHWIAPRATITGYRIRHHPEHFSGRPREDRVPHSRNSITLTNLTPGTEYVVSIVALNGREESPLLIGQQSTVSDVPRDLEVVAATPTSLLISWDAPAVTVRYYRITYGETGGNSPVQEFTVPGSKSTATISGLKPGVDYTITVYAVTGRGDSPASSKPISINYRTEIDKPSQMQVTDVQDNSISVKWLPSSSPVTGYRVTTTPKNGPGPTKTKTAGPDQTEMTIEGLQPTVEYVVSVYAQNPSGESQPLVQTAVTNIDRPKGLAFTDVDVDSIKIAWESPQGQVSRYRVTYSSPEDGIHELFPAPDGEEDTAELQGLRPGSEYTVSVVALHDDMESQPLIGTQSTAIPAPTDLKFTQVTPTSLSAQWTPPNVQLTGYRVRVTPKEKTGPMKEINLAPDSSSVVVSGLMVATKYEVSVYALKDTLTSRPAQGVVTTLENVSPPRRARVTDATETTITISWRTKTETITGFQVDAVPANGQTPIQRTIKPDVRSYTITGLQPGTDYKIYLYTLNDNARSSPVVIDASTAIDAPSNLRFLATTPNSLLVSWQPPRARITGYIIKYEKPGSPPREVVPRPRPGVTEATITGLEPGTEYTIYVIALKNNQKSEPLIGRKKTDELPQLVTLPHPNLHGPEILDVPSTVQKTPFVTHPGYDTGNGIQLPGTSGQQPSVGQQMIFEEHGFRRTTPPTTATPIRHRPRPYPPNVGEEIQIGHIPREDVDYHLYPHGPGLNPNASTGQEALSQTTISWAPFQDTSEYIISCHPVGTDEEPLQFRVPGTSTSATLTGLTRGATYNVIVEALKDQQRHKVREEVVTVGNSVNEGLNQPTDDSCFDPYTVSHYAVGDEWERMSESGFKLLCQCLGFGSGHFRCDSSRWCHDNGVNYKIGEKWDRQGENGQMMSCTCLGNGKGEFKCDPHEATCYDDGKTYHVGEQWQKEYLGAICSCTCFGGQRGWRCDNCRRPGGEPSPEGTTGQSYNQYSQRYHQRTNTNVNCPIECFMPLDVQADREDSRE

Binder | Kd (fibronectin [1]) | Kd (fibronectin [2]) | koff (fibronectin [2]) | kon (fibronectin [2])
GST-OspC_(VS461) (natural protein, B. afzelii strain VS461, UniProt Q0SL36 19-212, looked up, Cloned into pGEX4T2 at BamHI and SalI; source: E. coli BL21(DE3), purified by glutathione chromatography) CNNSGKGGDSASTNPADESAKGPNLTEISKKITDSNAFVLAVKEVETLVLSIDELAKKAIGQKIDNNNGLAALNNQNGSLLAGAYAISTLITEKLSKLKNLEELKTEIAKAKKCSEEFTNKLKSGHADLGKQDATDDHAKAAILKTHATTDKGAKEFKDLFESVEGLLKAAQVALTNSVKELTSPVVAESPKKP | 0.52 µM | – | – | –
OspC_(VS461), untagged (natural protein, B. afzelii strain VS461, UniProt Q0SL36 19-212, looked up, OspC (outer surface protein C) of B. afzelii strain VS461, without GST tag; Probably the GST fusion with the tag removed) CNNSGKGGDSASTNPADESAKGPNLTEISKKITDSNAFVLAVKEVETLVLSIDELAKKAIGQKIDNNNGLAALNNQNGSLLAGAYAISTLITEKLSKLKNLEELKTEIAKAKKCSEEFTNKLKSGHADLGKQDATDDHAKAAILKTHATTDKGAKEFKDLFESVEGLLKAAQVALTNSVKELTSPVVAESPKKP | – | 0.8 µM | 0.09 s⁻¹ | 151000 M⁻¹ s⁻¹
GST-OspC_(B31-ECM)^- (natural protein, B. burgdorferi strain B31-A3, UniProt Q07337 19-210, looked up, Cloned into pGEX4T2 at BamHI and SalI; also called OspCECM^-; source: E. coli BL21(DE3), purified by glutathione chromatography) CNNSGKDGNTSANSADESVKGPNLTEISKKITDSNAVLLAVKEVEALLSSIDEIAAKAIGKKIHQNNGLDTENNHNGSLLAGAYAISTLIKQKLDGLMNEGLMEMIDAAMMCSETFTNKLKEKHTDLGKEGVTDADAKEAILKTNGTKTKGAEELGKLFESVEVLSKAAKEMLANSVKELTSPVVAESPKKP | 2.14 µM | – | – | –
OspCB31, untagged (natural protein, B. burgdorferi strain B31-A3, UniProt Q07337 19-210, looked up, OspC (outer surface protein C) of B. burgdorferi strain B31-A3, without GST tag; Probably the GST fusion with the tag removed) CNNSGKDGNTSANSADESVKGPNLTEISKKITDSNAVLLAVKEVEALLSSIDEIAAKAIGKKIHQNNGLDTENNHNGSLLAGAYAISTLIKQKLDGLKNEGLKEKIDAAKKCSETFTNKLKEKHTDLGKEGVTDADAKEAILKTNGTKTKGAEELGKLFESVEVLSKAAKEMLANSVKELTSPVVAESPKKP | – | 9.21 µM | 0.13 s⁻¹ | 19900 M⁻¹ s⁻¹
GST-OspCB31 (natural protein, Cloned into pGEX4T2 at BamHI and SalI; also called wild type OspCB31; source: E. coli BL21(DE3), purified by glutathione chromatography) CNNSGKDGNTSANSADESVKGPNLTEISKKITDSNAVLLAVKEVEALLSSIDEIAAKAIGKKIHQNNGLDTENNHNGSLLAGAYAISTLIKQKLDGLKNEGLKEKIDAAKKCSETFTNKLKEKHTDLGKEGVTDADAKEAILKTNGTKTKGAEELGKLFESVEVLSKAAKEMLANSVKELTSPVVAESPKKP | 3.46 µM | – | – | –

Source: PMC7255614, “Strain-specific joint invasion and colonization by Lyme disease spirochetes is promoted by outer surface protein C” (PLoS Pathogens, 2020)
